PMC4252516

Biological target: AbrBC, C-terminal multimerization domain of AbrB from Bacillus subtilis (residues 52-94) (Bacillus subtilis)
Test: SEC

Substance: AbrBC, C-terminal multimerization domain of AbrB from Bacillus subtilis (residues 52-94) (domain or fragment)
- stoichiometry N: 2
